Laboratory results as given in the DeepSol protein solubility set.

assay: soluble on expression in E. coli; label from the status in PepcDB or PDB records

| Sequence | soluble on expression in E. coli |
| --- | --- |
| MNEKTINEQYAYIRTLLEEKRLKEALMQLESLLWQCPDWDLRTRLEQLQTSYKYMLEYMRQGANDPERWNVYRKLIADTWEIADRSRLLMLDNASSRYYHEVRRTPRPESLSAYTLKKLLHMLESFNDDLAVSGLLSDEKMDEVLKRHEETLKYMFLQTWTNSAWTPEEEEDAQSMLTSELLPVNDLCLFISAVTLSLMECFDLRKIMWLLDAYRHPDVNAGQRALVGVIFIFHIYKNRLSLYNDLVKRVDLMDEISPFKEDVARIYHQMLLCQETEKIDKKMREEIIPEMLKNVSSMRNMRFGFEENEDENDDKNPDWADAFEQSGLGDKLREMNELQLEGADVYMSTFAALKSYPFFREVQNWFYPFSKQQSDVIKQLKQEGNEKNTLLDLILQSGFFSNSDKYSLFFTIRQLPKAQQDMMLSQLGEQQVAELTEKSSAETMKKFNERPGTVSNQYLHDLYRFFKLSVRRHEFRDIFKEKLDLHHIPALSNVLYSEDILFPIADFYLKKERWNEAIEVYEEMETIGALQERGAEYYQKLGYALQKSKKYAEAIGAYLKADTLKPDNIWNNRHLAICYRLNRNYQAALSYYKKVEEATPEDTNVIFHIGSCLAELGQYEEAANYFFKLDFIESNCIKAWRGIGWCSFISRKYEQAMKYYEKIIEQKPLAIDYMNAGHVAWTMGDIQKAAALYGKSITANGNRERFLEMFRKDEEALLKQGIQEEDIPLMLDLL | not soluble |
| MNEVKLSKRLEEVVREIPVGSTVADIGSDHAYLPCYTIINNIATKAVAGEVVDGPFRSAQATVAESGLQDKVDVRKGNGLAVIAPGEVDVITVAGMGGALIRDILESGKEKLEGVTRLILQPNIAAHHIREWFIENGWELIHEKIVKEDGKIYEILVGERGNVAAPYSENKQAELFMGPFLITEKSEAFVEKWEGELKNFQNILKQLERAADSEETKAKRGEVEAKMKMIGEVLS | not soluble |
| MNFESTRRRLTEKQADTVDRLTRAAVEVLREEGFAGLTVRSVAGIAGVAPATAYTYFSSKEHLVAEVFWRRLAGSPQPADDGLDRTGRVVAVLRHIALLVADEPELAGAVTNALLGRDPDVEHLRARIGLEIRDRLATALGEGHDPDVLEALELLYAGGLVRAGMGYGSYAQFADRLETSAKLILE | not soluble |
| MNFGKSSWRTYEQGIQREWLLTNGIGGFASSTIIGSNTRRYHGLLVAALKPPVSRHLILSKIDECVTVDNESFNLFSYEVPGFIMHGYHHLERFEYDMLPKYIYRVKDVYVEKEICMVYGENTVVVVYHVINGTGRTNLRLTPLVNFRDYHFNSGRAYMSFERKFEKDVLTVRPSCYDIDIKLYSTDGKFTELDDTWFYNMDYAVERERGLASTEDHYIPGYYDIEIKPLEEKYITFVATVEKNVNHRDGLKIIEKEKKRLKKLASKAGYKDELAKKLVLAADKFIVHRESTNAKTVIAGYPWFTDWGRDTMISLAGLTLATRRFEDAKEILYTFSKYVKDGLIPNMFPDAGHEPPYNTVDAALWYFEAVNKYVNYTHDYKFIKENIYSGLKQIIEYYSKGTHFNIKADEDYLISAGDEHTQLTWMDAKVGDWVVTPRHGKAVEINALWYNALKIMSQLSKHFKEDAGLYDEMAEKVKKSFEEKFWNEEKKCLYDCLTPNYKDDKVRPNQILAVSLSYPVIEGEKAKSVVDIVFKELYTAYGLRSLSPKEKEYVGVYMGDQYRRDGAYHQGTVWTWPLGHFITAYLRVNNYSPEARKMALRFIEPFKDHLQDACLGSVSEIFDGNEPLIPRGCFAQAWSVAEILRAYVEDVMQLVQLKH | soluble |
| MNFPVSDLTSYQELIEQQGLKSQTNIISLDKIIVDIILSEKTGFSRSQQVWCLIRQRIVDGCASVVDIDYLDMRLMPQLNRSIAENSIYDYLENQLHLSISHAFKEITIDNTSEQDKILIDIGKDHHVVCIRSKVYLNNGNQLQFTESRHKLEKFKFVYYAKRHH | not soluble |
| MNGRRWMVLAAVVGVSTLSACASQGHDSDETLPTYTPPAWMAEVRAQNEEYANAGVACLAAHGVEGTADNGTFGISYGPQSQGALTHMTDEEADALLTECSESLSLPDYVNNSADEEYDRVLDLRECVIAQGYDMPDAPSREVWTEQWERTRDAWVPYYHEMTLDPDGLERHKVTVEEMNRLQSICVPSTVGATTVSR | not soluble |
| MNHQARMRWRCRRGMLELDIVLQRFIDNHYEQLDEHQLELFEMLLSLSDHDLWNIIIGNTKEPNNQFQPVLKLLQENLEHHHHHH | soluble |
| MNHTSDTALLIVNLGTPEAPTAAAVRRYLGEFLSDRRVVSIPPLFWKPLLHMVILPIRGPRSASKYAKVWLQEGSPLSVYTRRIAEGLTQHLPDWRVAWAMRYGAPALTKALDALQAQQVRRIVILPLYPQYSTTTTASVQDVVEAWCKRTPQVQVECIQDYAEDPAWVAAVAASIRRHWQAHGRSEKLMFSFHGLPQRVANNGDPYPQRCQV | not soluble |
| MNIAAESSAKPVWGPPNFCAAAARMQDVRVLMHPKTGRAFRSPVEPGSGWPGDPATPQTPVAADAAQVSALAGGAGSICELNALISVCRACPRLVSWREEVAVVKRRAFADQPYWGRPVPGWGSKRPRLLILGLAPAAHGANRTGRMFTGDRSGDQLYAALHRAGLVNSPVSVDAADGLRANRIRITAPVRCAPPGNSPTPAERLTCSPWLNAEWRLVSDHIRAIVALGGFAWQVALRLAGASGTPKPRFGHGVVTELGAGVRLLGCYHPSQQNMFTGRLTPTMLDDIFREAKKLAGIE | soluble |
| MNICMRNGYEQFSLTSPGTSDLEIGGSFWKDEPDTKYLCLDSPVEQRQHQPPMAVCAGCRLEISDRYFLRVNPNLEFHAQCLKCVQCSRPLDENQTAFVKNGQTYCRDDYRRLFTTRCSRCHGDFDKTDLVMRAGPQNVFHLNCFACVACEKRLQTGEEFQIKNNSLYCRSDCRGLDNPDTSASVPDYSKLNNNNNNDNNNSSSNFDEDEWDEERSTLTSLDNNTSSPLGSPKSDGVRTPLFGHHNSGSGGSTSSCGKKKKDKQATRVRTVLNENQLKILRDCYSINSRPDATLKERLVEMTGLSARVIRVWFQNKRCKDKKRQIQITENRLNSEREEVLNRVRVNGIGPLMVQPATPHIDNTLGGPIDIQHFAQWNGTPPPPPPQYGNPMMFNSPSTFDVSVILAPVAPNVTSPSEALGPLGASVFPHFSPQHAPFTATSHDISSPAPCGE | not soluble |
| MNIEQLSQSLEHMANQAATLDRQRGEHHVPLFDERLFSCRSRLLTPCVKEAKSTLDAIIREQNENKLTALRAEYLTERLVAQIGAIQREISTTKIRKNEIKHSSHFRKPINVLYQELAQHQEWARRLREMVLEKERAVETAPSFMRAEAQKVLLATEQRLARCEAALLKLENQITHREKHQ | soluble |
| MNIHEYQGKAVLRSYGVSVPNGKVAFTVEEAVEAAKELGTDVCVVKAQIHAGGRGKAGGVKVAKNLDEVRTYAESILGTTLVTHQTGPEGKEVKRLLIEEGCDIKKEYYVGLVLDRATSQVVLMASEEGGTEIEEVAEKTPEKIFKEYIDPAVGLQGFQARRIAFNINIPKELVGQAVKFMMGLYRAFIEKDCSIAEINPLVTTGDGKVMALDAKLNFDSNALYRHKDILELRDLDEEDAKEIEASKYDLNYIPLDGNIGCMVNGAGLAMATMDIIKHYHGDPANFLDVGGGATAEKVTEAFKIILSDKNVKGIFVNIFGGIMKCDVIAEGVIEATKQVGLELPLVVRLEGTNVELGKKILNESGLNIVAAESMTDGAQKIVSLVG | not soluble |
